From US20240400703A1 (Genmab, published 2024)

Biological target: T1, mouse OX40 expressed on ExpiCHO-S cells (mouse, UniProt P47741 20-272)
T1 construct: full-length entry; also called OX40mm; wild-type mouse OX40
T1 sequence: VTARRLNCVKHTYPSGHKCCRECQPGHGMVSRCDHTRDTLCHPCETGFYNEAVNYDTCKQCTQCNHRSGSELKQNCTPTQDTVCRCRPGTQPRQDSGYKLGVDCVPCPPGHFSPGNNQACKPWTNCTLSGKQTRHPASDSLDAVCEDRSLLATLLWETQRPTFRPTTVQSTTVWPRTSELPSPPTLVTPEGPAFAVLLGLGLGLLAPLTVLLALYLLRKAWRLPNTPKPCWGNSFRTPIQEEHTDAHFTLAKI
Test: not described (data not shown)

B1: IgG1-CD134-003-FEAL (antibody)
heavy: EQLKETGGGLVQPGGSLTLSCKASGFDFSSGYMSWVRQAPGKGLEWIGYIDPVFGSTYYASWVNGRFAISSHNAQNTLYLQLNSLTAADTATYFCARDLRAFYSGWGGINLWGPGTLVTVSSASTKGPSVFPLAPSSKSTSGGTAALGCLVKDYFPEPVTVSWNSGALTSGVHTFPAVLQSSGLYSLSSVVTVPSSSLGTQTYICNVNHKPSNTKVDKRVEPKSCDKTHTCPPCPAPEFEGGPSVFLFPPKPKDTLMISRTPEVTCVVVAVSHEDPEVKFNWYVDGVEVHNAKTKPREEQYNSTYRVVSVLTVLHQDWLNGKEYKCKVSNKALPAPIEKTISKAKGQPREPQVYTLPPSREEMTKNQVSLTCLVKGFYPSDIAVEWESNGQPENNYKTTPPVLDSDGSFLLYSKLTVDKSRWQQGNVFSCSVMHEALHNHYTQKSLSLSPG
light: AAVLTQTPSPVSAAVGGTVTIKCQSSQIVVNNNFLSWYQQKPGQPPKLLIYDASNLASGVPDRFSGSGSGTQFTLTISGVQSDDAATYYCLGGYDDDAENAFGGGTEVVVQRTVAAPSVFIFPPSDEQLKSGTASVVCLLNNFYPREAKVQWKVDNALQSGNSQESVTEQDSKDSTYSLSSTLTLSKADYEKHKVYACEVTHQGLSSPVTKSFNRGEC
notes: also called IgG1-CD134-003-L234F-L235E-D265A-F405L
  binding result: no binding
